Reference: IntAct's records for PubMed 11259609

B1: Aryl hydrocarbon receptor (Homo sapiens), P35869 (parent)
chain: MNSSSANITYASRKRRKPVQKTVKPIPAEGIKSNPSKRHRDRLNTELDRLASLLPFPQDVINKLDKLSVLRLSVSYLRAKSFFDVALKSSPTERNGGQDNCRAANFREGLNLQEGEFLLQALNGFVLVVTTDALVFYASSTIQDYLGFQQSDVIHQSVYELIHTEDRAEFQRQLHWALNPSQCTESGQGIEEATGLPQTVVCYNPDQIPPENSPLMERCFICRLRCLLDNSSGFLAMNFQGKLKYLHGQKKKGKDGSILPPQLALFAIATPLQPPSILEIRTKNFIFRTKHKLDFTPIGCDAKGRIVLGYTEAELCTRGSGYQFIHAADMLYCAESHIRMIKTGESGMIVFRLLTKNNRWTWVQSNARLLYKNGRPDYIIVTQRPLTDEEGTEHLRKRNTKLPFMFTTGEAVLYEATNPFPAIMDPLPLRTKNGTSGKDSATTSTLSKDSLNPSSLLAAMMQQDESIYLYPASSTSSTAPFENNFFNESMNECRNWQDNTAPMGNDTILKHEQIDQPQDVNSFAGGHPGLFQDSKNSDLYSIMKNLGIDFEDIRHMQNEKFFRNDFSGEVDFRDIDLTDEILTYVQDSLSKSPFIPSDYQQQQSLALNSSCMVQEHLHLEQQQQHHQKQVVVEPQQQLCQKMKHMQVNGMFENWNSNQFVPFNCPQQDPQQYNVFTDLHGISQEFPYKSEMDSMPYTQNFISCNQPVLPQHSKCTELDYPMGSFEPSPYPTTSSLEDFVTCLQLPENQKHGLNPQSAIITPQTCYAGAVSMYQCQPEPQHTHVGQMQYNPVLPGQQAFLNKFQNGVLNETYPAELNNINNTQTTTHLQPLHHPSEARPFPDLTSSGFL
partner: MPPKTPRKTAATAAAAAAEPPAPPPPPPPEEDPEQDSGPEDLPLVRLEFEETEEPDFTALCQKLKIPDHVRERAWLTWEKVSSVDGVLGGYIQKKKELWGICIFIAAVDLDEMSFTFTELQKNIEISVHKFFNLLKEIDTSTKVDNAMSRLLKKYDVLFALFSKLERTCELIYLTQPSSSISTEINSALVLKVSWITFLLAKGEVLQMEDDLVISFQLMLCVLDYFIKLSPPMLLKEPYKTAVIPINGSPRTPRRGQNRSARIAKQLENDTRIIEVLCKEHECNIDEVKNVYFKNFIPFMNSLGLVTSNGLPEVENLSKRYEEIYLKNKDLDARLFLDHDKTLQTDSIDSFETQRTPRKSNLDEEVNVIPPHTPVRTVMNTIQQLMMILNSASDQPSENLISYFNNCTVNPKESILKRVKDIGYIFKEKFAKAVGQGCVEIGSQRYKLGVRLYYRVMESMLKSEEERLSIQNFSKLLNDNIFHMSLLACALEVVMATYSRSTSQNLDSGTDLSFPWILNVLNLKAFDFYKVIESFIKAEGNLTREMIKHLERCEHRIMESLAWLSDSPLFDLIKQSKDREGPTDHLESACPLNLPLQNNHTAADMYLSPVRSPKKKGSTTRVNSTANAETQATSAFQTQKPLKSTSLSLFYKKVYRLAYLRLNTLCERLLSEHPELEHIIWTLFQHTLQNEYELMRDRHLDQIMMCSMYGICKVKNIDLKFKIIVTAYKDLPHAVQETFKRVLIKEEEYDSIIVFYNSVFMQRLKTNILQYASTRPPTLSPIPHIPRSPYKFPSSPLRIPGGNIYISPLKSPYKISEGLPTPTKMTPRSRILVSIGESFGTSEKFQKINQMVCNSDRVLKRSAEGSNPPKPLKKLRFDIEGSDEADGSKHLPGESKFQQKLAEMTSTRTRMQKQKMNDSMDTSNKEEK

Variants of: B1
Settings: with rb_human RB1, P06400

Variant | effect of a mutation on the interaction
E335A | disrupting interaction strength
C333A | disrupting interaction strength
L331A | disrupting interaction strength
